Data set [1] has as its target T1, GST-SlWRKY28 (Salix linearistipularis, UniProt A0A4D6JIT6 1-474). The data set can be described thus: EMSA; EMSA/gel-shift binding buffer (Beyotime kit, 5x stock, 2 uL per 10 uL reaction), 25 C, 20 min; salt and pH not stated. Particulars: protein: recombinant; tags: N-terminal GST (pGEX-6p-3); label: biotin (both probe strands); blunt. In general terms: A gel shift assay detects complexes by their altered migration in electrophoresis.

The target of data set [2] is T1, GST-SlWRKY28. The data set can be described thus: competition; 10x and 50x unlabeled probe against Biotin-Pr; complex signal weak with cold probe; EMSA/gel-shift binding buffer (Beyotime kit, 5x stock, 2 uL per 10 uL reaction), 25 C, 20 min; salt and pH not stated. The settings on record: protein: recombinant; tags: N-terminal GST (pGEX-6p-3); blunt.

T1 sequence (A0A4D6JIT6 entry or part of it): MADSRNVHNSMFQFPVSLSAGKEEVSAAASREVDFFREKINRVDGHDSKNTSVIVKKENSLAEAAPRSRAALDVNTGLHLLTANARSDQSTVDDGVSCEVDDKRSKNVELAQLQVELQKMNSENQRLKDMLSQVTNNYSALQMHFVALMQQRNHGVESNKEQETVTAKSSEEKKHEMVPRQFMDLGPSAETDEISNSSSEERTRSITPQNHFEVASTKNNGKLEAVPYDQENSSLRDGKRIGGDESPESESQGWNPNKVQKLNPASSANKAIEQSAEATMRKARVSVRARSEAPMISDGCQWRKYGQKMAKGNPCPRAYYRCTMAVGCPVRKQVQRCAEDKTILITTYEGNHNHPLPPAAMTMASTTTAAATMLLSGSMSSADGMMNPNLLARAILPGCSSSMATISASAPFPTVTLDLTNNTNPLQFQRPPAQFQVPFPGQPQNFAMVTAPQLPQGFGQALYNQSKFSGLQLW

B1: W-box probe (Biotin-Pr) (dsDNA)
DNA 1: GGAACTTGACCTTGACCTTAGGGCTGCAGGAATTCG
DNA 2: CGAATTCCTGCAGCCCTAAGGTCAAGGTCAAGTTCC
Consider B1, for which the binding result in data set [1] is “binds”.

B2: W-box cold probe (Cold-Pr) (dsDNA)
DNA 1: GGAACTTGACCTTGACCTTAGGGCTGCAGGAATTCG
DNA 2: CGAATTCCTGCAGCCCTAAGGTCAAGGTCAAGTTCC
B2: in data set [2], the binding result is “binds”.
